Target: biotin-ahx-ahx-EPQpYEEIPIYL (biotinylated pTyr peptide derived from the protein MidT)
Assay: BLI; Octet RED96 (ForteBio); biotinylated peptides immobilised on a streptavidin biosensor; SH2 variants at 300, 150 and 0 nM

SH2-WT (wild-type Fyn SH2 domain), 6xHis-tagged protein (from UniProt P06241 149-246) (domain or fragment)
Kd: 267 nM
